{"source": "patent US20220119534A1", "about": "(DRAGONFLY THERAPEUTICS, published 2022)", "binders": {"B1": {"name": "F3'-1602 TriNKET (bispecific antibody, human IgG1, kappa)", "chain": "QLQLQESGPGLVKPSETLSLTCTVSGFSLTNYGLHWIRQPPGKCLEWIGVIWSGGKTDYNPSLKSRVTISKDTSKNQFSLKLSSVQAADTAVYYCAKYDYDDSLDYWGQGTLVTVSSGGGGSGGGGSGGGGSGGGGSDIQMTQSPSSLSASVGDRVTITCHASQNINFWLSWYQQKPGKAPKLLIYEASNLHTGVPSRFSGSGSGTRFTLTISSLQPEDIATYYCQQSHSYPLTFGCGTKLEIKGSDKTHTCPPCPAPELLGGPSVFLFPPKPKDTLMISRTPEVTCVVVDVSHEDPEVKFNWYVDGVEVHNAKTKPREEQYNSTYRVVSVLTVLHQDWLNGKEYKCKVSNKALPAPIEKTISKAKGQPREPRVYTLPPCRDELTKNQVSLTCLVKGFYPSDIAVEWESNGQPENNYKTTPPVLVSDGSFTLYSKLTVDKSRWQQGNVFSCSVMHEALHNHYTQKSLSLSPG", "heavy": "EVQLVESGGGLVKPGGSLRLSCAASGFTFSSYSMNWVRQAPGKGLEWVSSISSSSSYIYYADSVKGRFTISRDNAKNSLYLQMNSLRAEDTAVYYCARGAPIGAAAGWFDPWGQGTLVTVSSASTKGPSVFPLAPSSKSTSGGTAALGCLVKDYFPEPVTVSWNSGALTSGVHTFPAVLQSSGLYSLSSVVTVPSSSLGTQTYICNVNHKPSNTKVDKKVEPKSCDKTHTCPPCPAPELLGGPSVFLFPPKPKDTLMISRTPEVTCVVVDVSHEDPEVKFNWYVDGVEVHNAKTKPREEQYNSTYRVVSVLTVLHQDWLNGKEYKCKVSNKALPAPIEKTISKAKGQPREPQVCTLPPSRDELTENQVSLTCLVKGFYPSDIAVEWESNGQPENNYKTTPPVLDSDGSFFLYSWLTVDKSRWQQGNVFSCSVMHEALHNHYTQKSLSLSPG", "light": "DIQMTQSPSSVSASVGDRVTITCRASQGISSWLAWYQQKPGKAPKLLIYAASSLQSGVPSRFSGSGSGTDFTLTISSLQPEDFATYYCQQGVSFPRTFGGGTKVEIKRTVAAPSVFIFPPSDEQLKSGTASVVCLLNNFYPREAKVQWKVDNALQSGNSQESVTEQDSKDSTYSLSSTLTLSKADYEKHKVYACEVTHQGLSSPVTKSFNRGEC", "notes": "Trispecific F3' format: CLEC12A scFv-Fc paired with NKG2D Fab-Fc; Stressed and control samples of the stability studies are the same molecule; also called AB0237"}}, "key": {"mFc-cNKG2D": {"target": "T1, mFc-cNKG2D (cynomolgus monkey, UniProt P61252 73-216)", "T1 construct": "extracellular domain; Made in house (Dragonfly Tx); also called recombinant cyno NKG2D extracellular domain (ECD); mFc-tagged cyno NKG2D dimer; not shown: mouse Fc tag", "T1 sequence (looked up)": "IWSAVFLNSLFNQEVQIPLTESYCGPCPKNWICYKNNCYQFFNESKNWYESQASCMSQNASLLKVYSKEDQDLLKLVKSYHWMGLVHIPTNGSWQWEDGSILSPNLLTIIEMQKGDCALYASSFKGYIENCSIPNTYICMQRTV", "experiment": "SPR Biacore 37 C; mFc-tagged cyno NKG2D dimer, TriNKET as analyte; steady state affinity fit"}, "Human CLEC12A-His": {"target": "T2, Human CLEC12A-His (human, UniProt Q5QGZ9 65-265)", "T2 sequence": "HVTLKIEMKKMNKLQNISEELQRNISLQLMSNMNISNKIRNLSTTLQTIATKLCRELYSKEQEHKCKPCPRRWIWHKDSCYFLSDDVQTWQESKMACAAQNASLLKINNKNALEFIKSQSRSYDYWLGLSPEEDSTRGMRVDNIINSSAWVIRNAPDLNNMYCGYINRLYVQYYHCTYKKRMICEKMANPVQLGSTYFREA", "experiment": "cell-based or functional assay"}}, "note": "“And” between values parts separate entries of the source, which are not always exact repeats. Equal entries are not always repeated."}
{"binder": "B1", "values": [{"measurement": "Kd", "setting": "mFc-cNKG2D", "value": "829 nM and 828 nM and 935 nM and 719 nM"}, {"measurement": "EC50 (nM), lysis of CLEC12A+ PL21 cells by KHYG-1-CD16a cells; HST formulation, 40 C, 4 wks", "setting": "Human CLEC12A-His", "value": 1.21, "unit": "nM"}, {"measurement": "EC50 (nM), lysis of CLEC12A+ PL21 cells by KHYG-1-CD16a cells; control sample", "setting": "Human CLEC12A-His", "value": 0.17, "unit": "nM"}]}
